Kd data for 14 molecules are collected here from patent US20210179715A1 (published 2021).

Substitutions are numbered along the chain they refer to. Names may count otherwise. Where two headings read alike, the source gives them in different places.

Broadly, the Kd is a measure of binding affinity in units of concentration.

For one experiment, the target named is Chimeric 1G4. As to the kind of experiment: Biacore.
Another experiment concerns the target ANT. As to the kind of experiment: BIAcore.
The target in the next experiment is GNT. The experiment in a line: BIAcore.
The next experiment deals with QNT. The experiment in a line: BIAcore. (In general: Surface plasmon resonance follows binding to a sensor surface in real time, without labels.)
Another experiment deals with SNT. As to the kind of experiment: BIAcore.
The target in a further experiment is Parental NNT. The experiment in a line: BIAcore.
Another experiment addresses NNV. As to the kind of experiment: BIAcore.
The target in the next experiment is QNV. As to the kind of experiment: BIAcore.
For the next experiment, the target named is SNV. As to the kind of experiment: BIAcore.
In another experiment the target is NNA. The experiment in a line: BIAcore.
The target in another experiment is SNA. As to the kind of experiment: BIAcore.
The next experiment has as its target SS. As to the kind of experiment: BIAcore.
The target in another experiment is IS. The experiment in a line: BIAcore.
Another experiment addresses SA. As to the kind of experiment: BIAcore.
The target in another experiment is 4H7. The experiment in a line: BIAcore; 37 C.
Experiment [1] concerns the target hu.20A12.IA.QNV.H12(V3-23).L2(K1-5). As to the kind of experiment: BIAcore; 37 C.
The target of experiment [2] is hu.20A12.IA.SNA.H12(V3-23).L2(K1-5). As to the kind of experiment: BIAcore; 37 C.
In experiment [3] the target is hu.20A12.IA.GNT.H12(V3-23).L2(K1-5). The experiment in a line: BIAcore; 37 C.
Experiment [4] deals with T1, human LY6G6D-Fc (UniProt O95868 20-104).
T1 chain: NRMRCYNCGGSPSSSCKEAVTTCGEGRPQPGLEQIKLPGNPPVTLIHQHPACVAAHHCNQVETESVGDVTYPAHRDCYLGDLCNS
As to the kind of experiment: BIAcore; 37 C.

The target of the next experiment is T2, human Ly6G6D polypeptide (UniProt O95868 20-104).
T2 chain: T1 chain
The experiment in a line: BIAcore.

For experiment [5], the target named is T1, human LY6G6D-Fc. The experiment in a line: BIAcore; 37 C.

B1: LY6G6D (other)
chain: T1 chain
Take B1: the Kd in the experiment with Chimeric 1G4 came out at 2.7 nM; in the experiment with ANT it was 0.26 nM; with GNT, 0.34 nM; with QNT, 0.28 nM; with SNT, 0.25 nM; with Parental NNT, 0.43 nM. The Kd stood at 0.22 nM in the experiment with NNV; 0.22 nM in the experiment with QNV; 0.23 nM with SNV; 0.26 nM with NNA; 0.27 nM in the experiment with SNA.

B2: Ly6G6D (other)
chain: T1 chain
In the case of B2, the results for the Kd in the experiment with SS, with IS and in the experiment with SA were 2.7 nM, 1.26 nM and 2.74 nM, respectively.

B3: Ly6G6D (Fc fusion)
chain: T1 chain
As to B3, the Kd with 4H7 worked out at 0.36 nM; in experiment [1], 0.0335 nM; in experiment [2] it was 0.105 nM; in experiment [3], 0.122 nM.

B4: rb20A12.IA (C35I-C50A) chimeric Fab (Fab, V domains shown)
VH: QQQLEESGGDLVKPGASLTLTCTASGFDFVNNAMIWVRQAPGKGLEWIAALSFADNTAYYATWASGRFTISKISSTTVTLRMTSLTGADTATYFCMRGDLWGPGTLVTVSS
VL: DIVMTQTPSSVSAAVGGTVTINCQASESITRYLNWYQQKPGQPPKLLIYDASKLPSGVPSRFKGSGSGTQFTLTTSDLECADAATYYCQSTSFRGRSYNNTFGGGTEVVVK
In turn, B4 yielded a Kd with human LY6G6D-Fc [4] of 0.704 nM.

B5: hu6E10.K1-5.V4-4 (antibody, V domains shown)
VH: EQQLQESGPGLVKPPGTLSLTCAVSGLSLSTNSINWVRQPPGKGLEWIGYIYHGDGIADYASWAKGRFTISKDSSKTQVSLKLSSVTAADTAVYFCASGAGYSLFTLWGPGTLVTVSS
VL: DAQLTQSPSTLSASVGDRVTITCQSSESVWHNNWLAWFQQKPGKRPKLLIYGASTLASGVPSRFSGSGSGTEFTLTISSLQPDDFATYYCAGGYSSSDAHVFGGGTKVEIK
In the case of B5, the Kd in the experiment with human Ly6G6D polypeptide worked out at 3.34 nM.

B6: hu6E10.K3-20.V4-4 (antibody, V domains shown)
VH: B5 VH
VL: EAVLTQSPGTLSLSPGERATLSCQSSESVWHNNWLAWFQQKPGQRPRLLIYGASTLASGVPDRFSGSGSGTDFTLTISRLEPEDFAVYYCAGGYSSSDAHVFGGGTKVEIK
B6 registered a Kd with human Ly6G6D polypeptide of 3.11 nM.

B7: hu6E10.K4-1.V4-4 (antibody, V domains shown)
VH: B5 VH
VL: DAVLTQSPDSLAVSLGERATINCQSSESVWHNNWLAWFQQKPGQRPKLLIYGASTLASGVPDRFSGSGSGTDFTLTISSLQAEDVAVYYCAGGYSSSDAHVFGGGTKVEIK
For the molecule B7, in the experiment with human Ly6G6D polypeptide, the Kd stood at 3.6 nM.

B8: hu6E10.K1-5.V3-48 (antibody, V domains shown)
VH: EQQLVESGGGLVQPGGSLRLSCAVSGLSLSTNSINWVRQAPGKGLEWIGYIYHGDGIADYASWAKGRFTISKDSAKNSVYLQMNSLRAEDTAVYFCASGAGYSLFTLWGPGTLVTVSS
VL: B5 VL
Molecule B8 showed a Kd in the experiment with human Ly6G6D polypeptide of 1.03 nM.

B9: hu6E10.K1-5.V3-53 (L1H1) (antibody, V domains shown)
VH: B8 VH with V12I, A75S, S78T
VL: B5 VL
The molecule B9 gave a Kd with human Ly6G6D polypeptide of 1.63 nM.

B10: hu6E10.K3-20.V3-53 (L1H1) (antibody, V domains shown)
VH: B8 VH with V12I, A75S, S78T
VL: B6 VL
B10 registered a Kd in the experiment with human Ly6G6D polypeptide of 1.3 nM.

B11: hu6E10.K4-1.V3-48 (antibody, V domains shown)
VH: B8 VH
VL: B7 VL
As for B11, the Kd in the experiment with human Ly6G6D polypeptide came out at 1.41 nM.

B12: hu6E10.K3-20.V3-48 (antibody, V domains shown)
VH: B8 VH
VL: B6 VL
With B12, in the experiment with human Ly6G6D polypeptide, the Kd stood at 1.3 nM.

B13: hu6E10.K4-1.V3-53 (antibody, V domains shown)
VH: B8 VH with V12I, A75S, S78T
VL: B7 VL
On to B13, for which, in the experiment with human Ly6G6D polypeptide, the Kd worked out at 1.66 nM.

B14: 1G4 Fab (Fab, V domains shown)
VH: EVQLVQSGAEVKKPGASVKVSCKASGYTFTTYVMHWVRQAPGQGLEWMGYINPYNDGTKYNEKFKGRVTMTRDTSISTAYMELSRLRSDDTAVYYCGRRNFDYWGQGTLVTVSS
VL: DIVMTQSPDSLAVSLGERATINCKSSQSLLLSGNQENYLAWHQQKPGQPPKTLITWASTRISGVPDRFSGSGSGTDFTLTISSLQAEDVAVYYCQQSYSAPYTFGGGTKVEIKR
In the case of B14, in the experiment with human LY6G6D-Fc [5], binding was put at a Kd of 1.45 nM.
